Test results from the supplement of paper PMC9112550, “Optimization of the antimicrobial peptide Bac7 by deep mutational scanning” (BMC Biology, 2022).

The sequences below were run on Escherichia coli TOP10 (assay: shrunken log2 fold change of peptide-encoding DNA abundance (4.5 h post-induction vs induction); higher = less antimicrobial activity (less host growth inhibition)). Settings: time post-induction: 4.5 h; library: site-saturation at positions 5, 18, 19, 20.
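Further: peptides expressed intracellularly from a pBAD plasmid library in pooled LB shake-flask culture, induced with 0.3% L-arabinose, DNA abundance read by NGS, three biological replicates, DESeq2 with apeglm shrinkage.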

Q: How did the “shrunken log2 fold change” value turn out when RRIRVRPPRLPRPRPRPNKQPRP was run?
A: 0.0173

Q: With RRIRQRPPRLPRPRPRPGLFPRP as the sequence, how does the “shrunken log2 fold change” value read?
A: -0.176

Q: With RRIRSRPPRLPRPRPRPDCHPRP as the sequence, how does the “shrunken log2 fold change” value read?
A: -0.0994

Q: RRIRRRPPRLPRPRPRPWQRPRP was tested. Which “shrunken log2 fold change” value did it give?
A: 0.188

Q: Which “shrunken log2 fold change” value does the source give for RRIRSRPPRLPRPRPRPYILPRP here?
A: -0.69

Q: RRIRDRPPRLPRPRPRPLKLPRP was tested. Which “shrunken log2 fold change” value did it give?
A: 0.0229

Q: RRIRYRPPRLPRPRPRPNLNPRP was tested. Which “shrunken log2 fold change” value did it give?
A: -0.393

Q: With RRIRARPPRLPRPRPRPWWDPRP as the sequence, how does the “shrunken log2 fold change” value read?
A: -0.101

Q: For RRIRTRPPRLPRPRPRPQRMPRP, which “shrunken log2 fold change” value is on record?
A: -0.272

Q: With RRIRCRPPRLPRPRPRPKFWPRP as the sequence, how does the “shrunken log2 fold change” value read?
A: 0.449

Q: RRIRFRPPRLPRPRPRPRCNPRP was tested. Which “shrunken log2 fold change” value did it give?
A: -0.0427

Q: With RRIRWRPPRLPRPRPRPICEPRP as the sequence, how does the “shrunken log2 fold change” value read?
A: 0.389

Q: RRIRWRPPRLPRPRPRPCLVPRP was tested. Which “shrunken log2 fold change” value did it give?
A: 0.144

Q: With RRIRIRPPRLPRPRPRPHVVPRP as the sequence, how does the “shrunken log2 fold change” value read?
A: -0.0217

Q: RRIRNRPPRLPRPRPRPYLAPRP was tested. Which “shrunken log2 fold change” value did it give?
A: -0.327

Q: For RRIRGRPPRLPRPRPRPWMEPRP, which “shrunken log2 fold change” value is on record?
A: 0.563

Q: RRIRTRPPRLPRPRPRPYEFPRP was tested. Which “shrunken log2 fold change” value did it give?
A: -0.202

Q: With RRIRERPPRLPRPRPRPVCTPRP as the sequence, how does the “shrunken log2 fold change” value read?
A: -0.147

Q: How did the “shrunken log2 fold change” value turn out when RRIRKRPPRLPRPRPRPWNIPRP was run?
A: -0.275

Q: How did the “shrunken log2 fold change” value turn out when RRIRNRPPRLPRPRPRPQRPPRP was run?
A: 0.206

Q: How did the “shrunken log2 fold change” value turn out when RRIRYRPPRLPRPRPRPPPSPRP was run?
A: 0.936

Q: How did the “shrunken log2 fold change” value turn out when RRIRKRPPRLPRPRPRPHEKPRP was run?
A: 1.1

Q: RRIRMRPPRLPRPRPRPNHNPRP was tested. Which “shrunken log2 fold change” value did it give?
A: -0.687

Q: For RRIRARPPRLPRPRPRPKWKPRP, which “shrunken log2 fold change” value is on record?
A: -0.291

Q: For RRIRLRPPRLPRPRPRPLYHPRP, which “shrunken log2 fold change” value is on record?
A: -0.648

Q: Which “shrunken log2 fold change” value does the source give for RRIRMRPPRLPRPRPRPTYDPRP here?
A: 0.473

Q: With RRIRFRPPRLPRPRPRPKGTPRP as the sequence, how does the “shrunken log2 fold change” value read?
A: -0.429

Q: Which “shrunken log2 fold change” value does the source give for RRIRHRPPRLPRPRPRPPWIPRP here?
A: 0.0139

Q: For RRIRPRPPRLPRPRPRPFLEPRP, which “shrunken log2 fold change” value is on record?
A: -0.214

Q: For RRIRTRPPRLPRPRPRPLWSPRP, which “shrunken log2 fold change” value is on record?
A: 0.0357

Q: RRIRRRPPRLPRPRPRPPDCPRP was tested. Which “shrunken log2 fold change” value did it give?
A: 0.326

Q: RRIRPRPPRLPRPRPRPRVPPRP was tested. Which “shrunken log2 fold change” value did it give?
A: 0.342

Q: For RRIRTRPPRLPRPRPRPEFWPRP, which “shrunken log2 fold change” value is on record?
A: 0.445

Q: For RRIRYRPPRLPRPRPRPMRIPRP, which “shrunken log2 fold change” value is on record?
A: 0.0121

Q: Which “shrunken log2 fold change” value does the source give for RRIRFRPPRLPRPRPRPTFIPRP here?
A: -0.44

Q: RRIRSRPPRLPRPRPRPPVRPRP was tested. Which “shrunken log2 fold change” value did it give?
A: 0.337

Q: With RRIRKRPPRLPRPRPRPSNMPRP as the sequence, how does the “shrunken log2 fold change” value read?
A: -0.327

Q: For RRIRLRPPRLPRPRPRPVIVPRP, which “shrunken log2 fold change” value is on record?
A: -0.0265

Q: Which “shrunken log2 fold change” value does the source give for RRIRYRPPRLPRPRPRPHWLPRP here?
A: -0.0432

Q: With RRIRHRPPRLPRPRPRPELYPRP as the sequence, how does the “shrunken log2 fold change” value read?
A: -0.215

Q: RRIRERPPRLPRPRPRPPCHPRP was tested. Which “shrunken log2 fold change” value did it give?
A: -0.251

Q: Which “shrunken log2 fold change” value does the source give for RRIRKRPPRLPRPRPRPVSQPRP here?
A: 0.147

Q: With RRIRVRPPRLPRPRPRPTRGPRP as the sequence, how does the “shrunken log2 fold change” value read?
A: 0.412

Q: With RRIRVRPPRLPRPRPRPDQRPRP as the sequence, how does the “shrunken log2 fold change” value read?
A: 0.128

Q: RRIRVRPPRLPRPRPRPIVIPRP was tested. Which “shrunken log2 fold change” value did it give?
A: 0.0265

Q: For RRIRSRPPRLPRPRPRPTETPRP, which “shrunken log2 fold change” value is on record?
A: 0.0721

Q: For RRIRMRPPRLPRPRPRPWPWPRP, which “shrunken log2 fold change” value is on record?
A: -0.00171

Q: RRIRGRPPRLPRPRPRPQFIPRP was tested. Which “shrunken log2 fold change” value did it give?
A: 0.0876

Q: RRIRKRPPRLPRPRPRPFIAPRP was tested. Which “shrunken log2 fold change” value did it give?
A: -0.0583

Q: With RRIRQRPPRLPRPRPRPFRWPRP as the sequence, how does the “shrunken log2 fold change” value read?
A: -0.0233

Q: Which “shrunken log2 fold change” value does the source give for RRIRERPPRLPRPRPRPWSPPRP here?
A: -0.0132

Q: With RRIRTRPPRLPRPRPRPFLLPRP as the sequence, how does the “shrunken log2 fold change” value read?
A: -0.743

Q: RRIRQRPPRLPRPRPRPVPVPRP was tested. Which “shrunken log2 fold change” value did it give?
A: -0.228

Q: With RRIRIRPPRLPRPRPRPPHVPRP as the sequence, how does the “shrunken log2 fold change” value read?
A: -0.265

Q: Which “shrunken log2 fold change” value does the source give for RRIRERPPRLPRPRPRPYGCPRP here?
A: -0.105

Q: RRIRARPPRLPRPRPRPIHNPRP was tested. Which “shrunken log2 fold change” value did it give?
A: -0.0611

Q: Which “shrunken log2 fold change” value does the source give for RRIRGRPPRLPRPRPRPQPEPRP here?
A: 0.704

Q: For RRIRTRPPRLPRPRPRPWQNPRP, which “shrunken log2 fold change” value is on record?
A: -0.0181

Q: With RRIRDRPPRLPRPRPRPIFSPRP as the sequence, how does the “shrunken log2 fold change” value read?
A: -0.182

Q: With RRIRWRPPRLPRPRPRPNFFPRP as the sequence, how does the “shrunken log2 fold change” value read?
A: 0.0572

Q: Which “shrunken log2 fold change” value does the source give for RRIRMRPPRLPRPRPRPVKYPRP here?
A: 0.0631

Q: RRIRCRPPRLPRPRPRPMWYPRP was tested. Which “shrunken log2 fold change” value did it give?
A: -0.414

Q: RRIRVRPPRLPRPRPRPRFHPRP was tested. Which “shrunken log2 fold change” value did it give?
A: -0.264

Q: Which “shrunken log2 fold change” value does the source give for RRIRIRPPRLPRPRPRPQSVPRP here?
A: -0.295

Q: For RRIRCRPPRLPRPRPRPGSYPRP, which “shrunken log2 fold change” value is on record?
A: -0.525

Q: For RRIRSRPPRLPRPRPRPINLPRP, which “shrunken log2 fold change” value is on record?
A: -0.00701

Q: RRIRYRPPRLPRPRPRPIPVPRP was tested. Which “shrunken log2 fold change” value did it give?
A: -0.0888

Q: RRIRLRPPRLPRPRPRPQYAPRP was tested. Which “shrunken log2 fold change” value did it give?
A: -0.0369

Q: For RRIRYRPPRLPRPRPRPVMDPRP, which “shrunken log2 fold change” value is on record?
A: -0.122

Q: How did the “shrunken log2 fold change” value turn out when RRIRHRPPRLPRPRPRPEPFPRP was run?
A: 0.0638

Q: With RRIRRRPPRLPRPRPRPYSAPRP as the sequence, how does the “shrunken log2 fold change” value read?
A: -0.137

Q: How did the “shrunken log2 fold change” value turn out when RRIRNRPPRLPRPRPRPPWLPRP was run?
A: 0.482

Q: For RRIRTRPPRLPRPRPRPEGWPRP, which “shrunken log2 fold change” value is on record?
A: 0.688

Q: For RRIRPRPPRLPRPRPRPRNVPRP, which “shrunken log2 fold change” value is on record?
A: 0.0758

Q: For RRIRIRPPRLPRPRPRPIGWPRP, which “shrunken log2 fold change” value is on record?
A: 0.0224

Q: RRIRYRPPRLPRPRPRPKFYPRP was tested. Which “shrunken log2 fold change” value did it give?
A: 0.0354

Q: RRIRMRPPRLPRPRPRPEHRPRP was tested. Which “shrunken log2 fold change” value did it give?
A: 0.0887

Q: Which “shrunken log2 fold change” value does the source give for RRIRCRPPRLPRPRPRPPYGPRP here?
A: -0.266

Q: With RRIRIRPPRLPRPRPRPRTFPRP as the sequence, how does the “shrunken log2 fold change” value read?
A: -0.143

Q: For RRIRWRPPRLPRPRPRPMALPRP, which “shrunken log2 fold change” value is on record?
A: -0.0125

Q: With RRIRHRPPRLPRPRPRPHTQPRP as the sequence, how does the “shrunken log2 fold change” value read?
A: 0.0972

Q: Which “shrunken log2 fold change” value does the source give for RRIRSRPPRLPRPRPRPPCYPRP here?
A: -0.145

Q: RRIRWRPPRLPRPRPRPMTVPRP was tested. Which “shrunken log2 fold change” value did it give?
A: -0.0472

Q: How did the “shrunken log2 fold change” value turn out when RRIRVRPPRLPRPRPRPAIWPRP was run?
A: 0.0627

Q: How did the “shrunken log2 fold change” value turn out when RRIRDRPPRLPRPRPRPETYPRP was run?
A: 0.217

Q: Which “shrunken log2 fold change” value does the source give for RRIRIRPPRLPRPRPRPGPQPRP here?
A: 0.0436

Q: RRIRARPPRLPRPRPRPCNFPRP was tested. Which “shrunken log2 fold change” value did it give?
A: -0.478

Q: How did the “shrunken log2 fold change” value turn out when RRIRMRPPRLPRPRPRPWGAPRP was run?
A: 0.698

Q: With RRIRPRPPRLPRPRPRPYKPPRP as the sequence, how does the “shrunken log2 fold change” value read?
A: -0.481

Q: How did the “shrunken log2 fold change” value turn out when RRIRPRPPRLPRPRPRPKRCPRP was run?
A: -0.0846

Q: How did the “shrunken log2 fold change” value turn out when RRIRIRPPRLPRPRPRPLCFPRP was run?
A: -0.485

Q: With RRIRKRPPRLPRPRPRPNDNPRP as the sequence, how does the “shrunken log2 fold change” value read?
A: -0.076

Q: With RRIRNRPPRLPRPRPRPYQCPRP as the sequence, how does the “shrunken log2 fold change” value read?
A: -0.00804

Q: With RRIRTRPPRLPRPRPRPVNWPRP as the sequence, how does the “shrunken log2 fold change” value read?
A: 0.0495

Q: For RRIRWRPPRLPRPRPRPKCFPRP, which “shrunken log2 fold change” value is on record?
A: -0.076

Q: With RRIRNRPPRLPRPRPRPTSKPRP as the sequence, how does the “shrunken log2 fold change” value read?
A: -0.0758

Q: With RRIRGRPPRLPRPRPRPTCLPRP as the sequence, how does the “shrunken log2 fold change” value read?
A: 0.576

Q: For RRIRSRPPRLPRPRPRPCEQPRP, which “shrunken log2 fold change” value is on record?
A: 0.000312

Q: Which “shrunken log2 fold change” value does the source give for RRIRCRPPRLPRPRPRPCVQPRP here?
A: -0.153

Q: Which “shrunken log2 fold change” value does the source give for RRIRARPPRLPRPRPRPFSPPRP here?
A: -0.342

Q: RRIRKRPPRLPRPRPRPTNEPRP was tested. Which “shrunken log2 fold change” value did it give?
A: 0.387

Q: For RRIRARPPRLPRPRPRPQPRPRP, which “shrunken log2 fold change” value is on record?
A: 0.721

Q: Which “shrunken log2 fold change” value does the source give for RRIRTRPPRLPRPRPRPWNIPRP here?
A: 0.0303

Q: For RRIRVRPPRLPRPRPRPSASPRP, which “shrunken log2 fold change” value is on record?
A: -0.2

Q: With RRIRERPPRLPRPRPRPSSAPRP as the sequence, how does the “shrunken log2 fold change” value read?
A: 0.0581

Q: With RRIRYRPPRLPRPRPRPQLQPRP as the sequence, how does the “shrunken log2 fold change” value read?
A: -0.137

Q: For RRIRKRPPRLPRPRPRPPQPPRP, which “shrunken log2 fold change” value is on record?
A: 0.856

Q: With RRIRERPPRLPRPRPRPIGCPRP as the sequence, how does the “shrunken log2 fold change” value read?
A: -0.00631

Q: With RRIRERPPRLPRPRPRPCRSPRP as the sequence, how does the “shrunken log2 fold change” value read?
A: -0.0928
